The assay has as its target T1, human alpha-2-macroglobulin, native state (nA2M) (human), P01023.
T1 chain: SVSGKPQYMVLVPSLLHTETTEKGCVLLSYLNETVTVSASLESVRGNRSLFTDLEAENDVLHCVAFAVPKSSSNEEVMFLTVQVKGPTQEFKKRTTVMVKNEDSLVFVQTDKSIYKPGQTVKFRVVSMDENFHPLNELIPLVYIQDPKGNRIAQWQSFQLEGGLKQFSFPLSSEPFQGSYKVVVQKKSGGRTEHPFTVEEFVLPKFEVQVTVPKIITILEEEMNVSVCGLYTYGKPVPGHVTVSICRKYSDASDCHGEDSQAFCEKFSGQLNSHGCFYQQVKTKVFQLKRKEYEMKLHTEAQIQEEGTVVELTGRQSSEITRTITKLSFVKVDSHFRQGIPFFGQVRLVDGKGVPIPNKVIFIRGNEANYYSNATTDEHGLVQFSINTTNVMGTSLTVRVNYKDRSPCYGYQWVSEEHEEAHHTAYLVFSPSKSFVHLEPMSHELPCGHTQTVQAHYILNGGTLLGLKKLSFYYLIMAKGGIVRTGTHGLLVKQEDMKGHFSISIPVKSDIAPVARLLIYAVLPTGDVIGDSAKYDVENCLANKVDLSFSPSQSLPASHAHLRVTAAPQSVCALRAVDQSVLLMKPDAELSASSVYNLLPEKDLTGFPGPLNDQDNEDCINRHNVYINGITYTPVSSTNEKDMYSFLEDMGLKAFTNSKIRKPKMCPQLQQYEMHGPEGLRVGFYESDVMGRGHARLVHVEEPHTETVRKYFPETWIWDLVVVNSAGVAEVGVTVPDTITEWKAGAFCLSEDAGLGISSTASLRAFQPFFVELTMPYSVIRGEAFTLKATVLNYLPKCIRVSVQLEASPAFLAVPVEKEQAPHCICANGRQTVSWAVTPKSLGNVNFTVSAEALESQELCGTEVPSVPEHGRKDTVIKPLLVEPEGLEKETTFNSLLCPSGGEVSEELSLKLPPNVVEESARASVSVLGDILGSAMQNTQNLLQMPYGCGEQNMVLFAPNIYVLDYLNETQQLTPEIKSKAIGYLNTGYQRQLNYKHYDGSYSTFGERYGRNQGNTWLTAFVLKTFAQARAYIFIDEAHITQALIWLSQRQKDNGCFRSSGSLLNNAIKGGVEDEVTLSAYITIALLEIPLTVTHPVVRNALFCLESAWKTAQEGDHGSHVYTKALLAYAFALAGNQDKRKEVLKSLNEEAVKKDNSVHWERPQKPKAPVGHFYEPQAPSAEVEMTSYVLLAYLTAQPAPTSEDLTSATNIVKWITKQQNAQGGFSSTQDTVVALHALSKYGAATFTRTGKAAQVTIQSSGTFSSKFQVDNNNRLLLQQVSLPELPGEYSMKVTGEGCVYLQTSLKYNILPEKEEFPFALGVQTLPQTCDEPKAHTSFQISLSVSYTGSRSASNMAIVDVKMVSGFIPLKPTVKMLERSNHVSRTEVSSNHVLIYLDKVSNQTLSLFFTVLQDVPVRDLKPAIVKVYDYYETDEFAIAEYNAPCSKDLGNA
Nature of the assay: ITC. In general terms: Isothermal titration calorimetry measures the heat released or taken up as one component is titrated into another.

B1: human trypsin, P35030 81-304 (enzyme)
chain: IVGGYTCEENSLPYQVSLNSGSHFCGGSLISEQWVVSAAHCYKTRIQVRLGEHNIKVLEGNEQFINAAKIIRHPKYNRDTLDNDIMLIKLSSPAVINARVSTISLPTTPPAAGTECLISGWGNTLSFGADYPDELKCLDAPVLTQAECKASYPGKITNSMFCVGFLEGGKDSCQRDSGGPVVCNGQLQGVVSWGHGCAWKNRPGVYTKVYNYVDWIKDTIAANS
modifications: not checked
Molecule B1 came in with a stoichiometry N (trypsin per hA2M) of 1.2.

The record behind these values is paper doi:10.1101/2022.05.10.491262.
